The target in assay [1] is T1, Coa-C (Coa 311-636) (Staphylococcus aureus strain Newman, UniProt P08515 1-218 = GST).
T1 construct: also called rCoa-C; Coa-C311-636
As to the kind of experiment: apparent Kd from half-maximal binding in ELISA (GraphPad Prism).

The target in assay [2] is T2, Coa-R0474-505 (recombinant protein) (Staphylococcus aureus strain Newman).
T2 chain: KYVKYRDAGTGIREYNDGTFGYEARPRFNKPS
The assay is described as above.

The target in assay [3] is T3, Coa-F (Coa 311-505) (Staphylococcus aureus strain Newman, UniProt P08515 1-218 = GST). The assay is described as above.
Assay [4] addresses T4, Efb-N30-105 (Staphylococcus aureus strain Newman, UniProt A6QG59 30-105).
T4 sequence: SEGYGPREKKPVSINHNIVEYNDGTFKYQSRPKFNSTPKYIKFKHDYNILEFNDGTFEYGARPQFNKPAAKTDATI
Described as above.

Assay [5] concerns the target T5, Efb-A30-67 (Staphylococcus aureus strain Newman, UniProt P08515 1-218 = GST; A6QG59 30-67). The assay is described as above.
Assay [6] has as its target T6, recombinant Efb-O (Efb 68-98) (Staphylococcus aureus strain Newman, UniProt P08515 1-218 = GST). The assay is described as above.
Assay [7] concerns the target T5, Efb-A30-67.
Assay [8] addresses T6, recombinant Efb-O (Efb 68-98).
Assay [9] has as its target T4, Efb-N30-105. As to the kind of experiment: ELISA, apparent Kd from half maximum binding.
Assay [10] addresses T5, Efb-A30-67. The assay can be described thus: ELISA, apparent Kd from half maximum binding.
The target in assay [11] is T6, recombinant Efb-O (Efb 68-98). As to the kind of experiment: ELISA, apparent Kd from half maximum binding.
Assay [12] addresses T1, Coa-C (Coa 311-636).
For assay [13], the target named is T7, Coa-R (Coa 506-636) (Staphylococcus aureus strain Newman). As to the kind of experiment: ELISA, antigen coated 200 ng/well, scFv-Fc at 0.5 µg/ml.
Assay [14] deals with T1, Coa-C (Coa 311-636). The assay can be described thus: apparent Kd from half-maximal binding in ELISA (GraphPad Prism); column head prints M, the text prints µM.
For another assay, the target named is T8, BSA (bovine, UniProt P02769 25-607).
T8 construct: also called bovine serum albumin
As to the kind of experiment: solid-phase binding assay (FIG. 24).

The target of assay [15] is T4, Efb-N30-105. The assay can be described thus: solid-phase binding assay, titration (FIG. 24).
The target in assay [16] is T5, Efb-A30-67. As to the kind of experiment: solid-phase binding assay, titration (FIG. 24).
Assay [17] addresses T6, recombinant Efb-O (Efb 68-98). As to the kind of experiment: solid-phase binding assay, titration (FIG. 24).
Assay [18] concerns the target T1, Coa-C (Coa 311-636). The source holds these as a separate data set.
The target in assay [19] is T7, Coa-R (Coa 506-636).
Assay [20] concerns the target T3, Coa-F (Coa 311-505).
Assay [21] has as its target T2, Coa-R0474-505 (recombinant protein). As to the kind of experiment: apparent Kd from half-maximal binding in ELISA (GraphPad Prism).
Description: (§1) As well, binding was tested against Coa fragments, namely Coa-C₃₁₁₋₆₃₆, Coa-F₃₁₁₋₅₀₅, Coa-R0₄₇₄₋₅₀₅ and Coa-R₅₀₆₋₆₃₆. Recombinant proteins Efb-N₃₀₋₁₀₅, Efb-A₃₀₋₆₇, Efb-O₆₈₋₉₈, Coa-C₃₁₁₋₆₃₆, Coa-F₃₁₁₋₅₀₅, Coa-R0₄₇₄₋₅₀₅ and Coa-R₅₀₆₋₆₃₆ were diluted in 50 mM sodium carbonate pH 9.6 and immobilized at the concentration of 200 ng/well for 1 hour at room temperature. Immobilized proteins were probed for recognition in a solid-phase binding assay with different quantities of LIG40 antibodies after blocking and washing. After washing, varying concentrations of LIG40 scFv-Fc antibodies were diluted in 2% BSA+1×PBS+0.05% Tween-20 and incubated with the immobilized proteins for 1 hour at room temperature with shaking at 250 rpm. Bound scFv-Fcs were detected using polyclonal α-human IgG HRP-conjugated Ab diluted to 1:10000 in 2% BSA+1×PBS+0.05% Tween-20. HRP-conjugated Ab was incubated for 1 hour at room temperature with shaking at 250 rpm. HRP signal was developed with Sigma FAST-OPD using manufacturers guidelines.
In assay [22] the target is T7, Coa-R (Coa 506-636). Described as above.
Description: as §1
In assay [23] the target is T3, Coa-F (Coa 311-505). The description is as above. The source holds these as a separate data set.
Description: as §1
Assay [24] deals with T4, Efb-N30-105. The assay can be described thus: ELISA, antigen coated 200 ng/well, scFv-Fc at 0.5 µg/ml.
The target in assay [25] is T2, Coa-R0474-505 (recombinant protein). The assay can be described thus: solid-phase binding assay, titration (FIG. 24); ND in FIG. 27.
The target of assay [26] is T7, Coa-R (Coa 506-636). The assay can be described thus: blocking ELISA: scFv-Fc pre-incubated with 10 nM CoaR, residual binding to coated Fg (blocked ligand: Fg).
Assay [27] deals with T9, synthetic peptide Coa-RI (Coa 506-532) (Staphylococcus aureus strain Newman).
T9 construct: also called sCoa-RI
As to the kind of experiment: peptide inhibition ELISA; appreciable inhibition only above 100 µM peptide.

Assay [28] deals with T1, Coa-C (Coa 311-636). As to the kind of experiment: apparent Kd from half-maximal binding in ELISA (GraphPad Prism). This is another data set of the same source.
Description: as §1
For assay [29], the target named is T9, synthetic peptide Coa-RI (Coa 506-532). As to the kind of experiment: isothermal titration calorimetry, peptide into 10 µM Fg-D, one-site model.

Where two headings read alike, the source gives them in different places.

T8 sequence (P02769 25-607 limits assumed): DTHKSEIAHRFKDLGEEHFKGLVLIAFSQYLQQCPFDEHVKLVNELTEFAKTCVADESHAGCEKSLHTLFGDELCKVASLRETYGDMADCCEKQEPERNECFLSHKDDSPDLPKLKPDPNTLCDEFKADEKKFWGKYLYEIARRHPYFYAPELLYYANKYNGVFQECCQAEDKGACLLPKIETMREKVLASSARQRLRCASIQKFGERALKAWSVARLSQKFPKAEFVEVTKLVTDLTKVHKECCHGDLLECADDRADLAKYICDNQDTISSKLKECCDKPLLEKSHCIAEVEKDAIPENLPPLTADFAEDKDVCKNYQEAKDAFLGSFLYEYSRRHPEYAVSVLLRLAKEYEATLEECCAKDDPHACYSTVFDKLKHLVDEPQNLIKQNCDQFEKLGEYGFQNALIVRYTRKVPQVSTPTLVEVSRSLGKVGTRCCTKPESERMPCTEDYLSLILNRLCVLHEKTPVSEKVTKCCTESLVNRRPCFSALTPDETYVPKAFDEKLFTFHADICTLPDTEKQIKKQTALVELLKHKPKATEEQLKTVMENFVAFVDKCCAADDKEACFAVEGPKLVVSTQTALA

B1: FBE5-F11 (scFv, V domains shown)
VH: QVQLQESGGGVVQPGRSLRLSCAASGFTFSSYGMHWVRQAPGKGLEWVAVISYDGSNKYYADSVKGRFTISRDNSKNTLYLQMNSLRAEDTAVYYCAKDLASSGFDYWGQGTLVTVSS
VL: QSVLTQPPSVSAAPGQKVTISCSGSSSNIGNNYVSWYQQLPGTAPKLLIYDNNKRPSGIPDRFSGSKSGTSATLGITGLQTGDEADYYCGTWDSSLSAEVFGGGTKLTVL
Consider B1, for which the Kd was found to be 0.513 nM with Coa-C (Coa 311-636) [1]; 0.213 nM in assay [2]; 0.244 nM with Coa-F (Coa 311-505) [3]; 0.219 nM with Efb-N30-105 [4]; 0.483 nM in the assay with Efb-A30-67 [5]; 0.396 nM in assay [6]. Besides, the Kd (with Efb-N30-105 [9]; with Efb-A30-67 [10]; in [11]) was around 0.1 nM throughout. Further, the entries for the “EC50 (read off the curve)” value (with Efb-A30-67 [7]; in assay [8]; with Coa-C (Coa 311-636) [12]) were around 0.06 µg/mL, around 0.05 µg/mL and around 0.06 µg/mL, respectively. Moreover, the binding result with Coa-R (Coa 506-636) [13] was “no binding (tested: 0.5 µg/ml)”.

B2: LIG40-D8 (scFv, V domains shown)
VH: EVQLVESGGGVVQPGRSLRLSCAASGFTFSSYGMHWVRQAPGKGLEWVAVIWYDGSNKYYADSVKGRFTISRDNSKNTLYLQMNSLRAEDTAVYYCARDYHGDGFDYWGQGTLVTVSS
VL: DIQMTQSPSSLSASVGDTVTITCRASQDINNYLAWFQQKPGKAPKSLISAASSLQNGVPLRFSGSASGADFTLTISGLQPEDSGTYYCQQYDVFPITFGPGTKVDIK
Turning to B2, the Kd with Coa-C (Coa 311-636) [14] came to 0.0939 nM; in assay [21], 2.52 nM; in the assay with Coa-R (Coa 506-636) [22], 0.0862 nM; in the assay with Coa-F (Coa 311-505) [23], 0.112 nM. For the same molecule, the binding result (in the assay with BSA; in the assay with Efb-N30-105 [15]; in the assay with Efb-A30-67 [16]; in assay [17]) was “no binding” throughout. The “EC50 (read off the curve)” value is around 0.01 µg/mL in the assay with Coa-C (Coa 311-636) [18], around 10 ng/mL in the assay with Coa-R (Coa 506-636) [19] and around 0.01 µg/mL in the assay with Coa-F (Coa 311-505) [20].

B3: FBE5-E5 (scFv, V domains shown)
VH: QMQLVQSGGGVVQPGRSLRLSCAASGFTFSSYGMHWVRQAPGKGLEWVAVISYDGSNKYYADSVKGRFTISRDNSKNTLYLQMNSLRGEDTAVYYCAREGGWEPNGLDYWGQGTLVTVSS
VL: QSVLTQPPSVSAAPGQKVTISCSGSSSNIGNNYVSWYQQLPGTAPKLLIYDNNKRPSGIPDRFSGSKSGTSATLGITGLQTGDEADYYCGTWDSSLSAEVFGGGTKLTVL
B3: the Kd with Coa-C (Coa 311-636) [1] came out at 6.27 nM; in assay [2], 864 nM; with Coa-F (Coa 311-505) [3], 9.5 nM; in assay [6], 434 nM. Further, the figures for the binding result in the assay with Efb-N30-105 [24] and with Coa-R (Coa 506-636) [13] were “binds” and “no binding (tested: 0.5 µg/ml)”, respectively.

B4: LIG40-A11 (scFv, V domains shown)
VH: QVQLVESGGVVVQPGGSLRLSCAASGFTFDDYAMHWVRQAPGKGLEWVSLISWDGGSTYYADSVKGRFTISRDNSKNSLYLQMNSLRAEDTALYYCVAARRGMDVWGQGTTVTVSS
VL: KIVLTQSPLSLPVTPGEPASISCRSSQSLLYSNGNNYLDWYLQKPGQSPQLLIYLGSNRAPGVPDRFSGSGSGTDFTLRISRVEAEDVGVYYCMQGRQPPFTFGPGTKVDIK
notes: also called anti-CoaR scFv-Fc antibody
Consider B4, for which the binding result in assay [25] is on record as “no binding”; with BSA, “no binding”; with Efb-N30-105 [15], “no binding”; with Efb-A30-67 [16], “no binding”; in assay [17], “no binding”; in [27], “binds”. The “IC50 (read off the curve)” value with Coa-R (Coa 506-636) [26] is around 3 µg/mL. In addition, the half-maximal effective concentration (EC50 (read off the curve)) was around 0.02 µg/mL with Coa-C (Coa 311-636) [18] and around 8 ng/mL in the assay with Coa-R (Coa 506-636) [19]. Further, the Kd in the assay with Coa-C (Coa 311-636) [28] was found to be 0.133 nM.

B5: Fibrinogen-D fragment (other)
chain 1: VSEDLRSRIEVLKRKVIEKVQHIQLLQKNVRAQLVDMKRLEVDIDIKIRSCRGSCSRALAREVDLKDYEDQQKQLEQVIAKDLLPSR
chain 2: DNENVVNEYSSELEKHQLYIDETVNSNIPTNLRVLRSILENLRSKIQKLESDVSAQMEYCRTPCTVSCNIPVVSGKECEEIIRKGGETSEMYLIQPDSSVKPYRVYCDMNTENGGWTVIQNRQDGSVDFGRKWDPYKQGFGNVATNTDGKNYCGLPGEYWLGNDKISQLTRMGPTELLIEMEDWKGDKVKAHYGGFTVQNEANKYQISVNKYRGTAGNALMDGASQLMGENRTMTIHNGMFFSTYDRDNDGWLTSDPRKQCSKEDGGGWWYNRCHAANPNGRYYWGGQYTWDMAKHGTDDGVVWMNWKGSWYSMRKMSMKIRPFFPQQ
chain 3: KMLEEIMKYEASILTHDSSIRYLQEIYNSNNQKIVNLKEKVAQLEAQCQEPCKDTVQIHDITGKDCQDIANKGAKQSGLYFIKPLKANQQFLVYCEIDGSGNGWTVFQKRLDGSVDFKKNWIQYKEGFGHLSPTGTTEFWLGNEKIHLISTQSAIPYALRVELEDWNGRTSTADYAMFKVGPEADKYRLTYAYFAGGDAGDAFDGFDFGDDPSDKFFTSHNGMQFSTWDNDNDKFEGNCAEQDGSGWWMNKCHAGHLNGVYYQGGTYSKASTPNGYDNGIIWATWKTRWYSMKKTTMKIIPFNRLTIGEGQQHHLGGAK
notes: domain: D fragment; also called Fg-D; D fragment of human Fg
In assay [29], B5 registered a Kd of 88 nM.

For the origin of these results see patent publication US20200283508A1 (TEXAS A AND M UNIVERSITY SYSTEM, published 2020).
